Experimental data as given in article PMC8420772.

Target: SeMet-labeled MtMce4A_(39–140) (Mycobacterium tuberculosis H37Rv)
Assay: crystal structure; SeMet-labeled protein, 7.5 mg ml^−1; 100 mM MES, 700 mM ammonium sulfate pH 6.0, 22°C; space group P6_(5), 3.6 Å, SAD phasing

For “SeMet-labeled MtMce4A_(39–140) (domain or fragment)”, the stoichiometry N was 2.
